Assay results: patent US20260049134A1 (UNIVERSITY OF FLORIDA RESEARCH FOUNDATION, published 2026)

T1: PTPRG-Fc (ECD of human PTPRG, aa 20-736, fused to human Fc gamma 1) (human, UniProt P23470 20-736)
T1 construct: Made in-house in Expi293 cells; Used in ELISA and SPR; also called recombinant PTPRG-Fc; PTRPG; not shown: human IgG1 Fc (Fc gamma 1) after the hinge
T1 sequence: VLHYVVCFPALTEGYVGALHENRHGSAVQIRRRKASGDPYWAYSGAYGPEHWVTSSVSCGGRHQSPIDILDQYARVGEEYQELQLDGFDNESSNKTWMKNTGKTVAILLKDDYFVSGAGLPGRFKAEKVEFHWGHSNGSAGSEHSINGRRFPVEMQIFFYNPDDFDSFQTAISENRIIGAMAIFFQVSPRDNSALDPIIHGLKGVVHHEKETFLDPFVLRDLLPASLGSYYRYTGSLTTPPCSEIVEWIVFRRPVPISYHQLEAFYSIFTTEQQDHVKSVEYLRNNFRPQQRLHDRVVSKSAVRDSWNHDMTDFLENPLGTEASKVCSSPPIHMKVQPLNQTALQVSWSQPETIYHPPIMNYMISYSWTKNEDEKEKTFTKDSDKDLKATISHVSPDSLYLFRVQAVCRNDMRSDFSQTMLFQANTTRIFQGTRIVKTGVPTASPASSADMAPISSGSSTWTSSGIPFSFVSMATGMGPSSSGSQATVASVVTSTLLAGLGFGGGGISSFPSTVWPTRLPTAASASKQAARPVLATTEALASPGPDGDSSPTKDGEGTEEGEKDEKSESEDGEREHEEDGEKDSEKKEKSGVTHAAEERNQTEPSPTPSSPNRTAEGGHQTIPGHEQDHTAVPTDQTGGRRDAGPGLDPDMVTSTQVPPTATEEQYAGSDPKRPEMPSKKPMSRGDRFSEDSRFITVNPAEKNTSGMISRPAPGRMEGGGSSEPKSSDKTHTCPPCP

T2: HHLA2 (B7-H7)
T2 construct: coated protein in the ELISA; also called HHLA2-Fc (R&D Systems)
T2 chain: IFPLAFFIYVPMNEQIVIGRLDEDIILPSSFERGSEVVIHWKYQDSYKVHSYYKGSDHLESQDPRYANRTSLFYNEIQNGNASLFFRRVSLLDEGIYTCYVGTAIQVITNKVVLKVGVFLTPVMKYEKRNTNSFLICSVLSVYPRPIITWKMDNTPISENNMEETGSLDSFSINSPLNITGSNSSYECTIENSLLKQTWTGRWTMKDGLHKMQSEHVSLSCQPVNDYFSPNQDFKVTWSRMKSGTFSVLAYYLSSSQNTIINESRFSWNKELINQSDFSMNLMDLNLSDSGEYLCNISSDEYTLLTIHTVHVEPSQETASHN

T3: IGSF11 (VSIG3)
T3 construct: coated protein in the ELISA; also called IGSF11-Fc (R&D Systems)
T3 chain: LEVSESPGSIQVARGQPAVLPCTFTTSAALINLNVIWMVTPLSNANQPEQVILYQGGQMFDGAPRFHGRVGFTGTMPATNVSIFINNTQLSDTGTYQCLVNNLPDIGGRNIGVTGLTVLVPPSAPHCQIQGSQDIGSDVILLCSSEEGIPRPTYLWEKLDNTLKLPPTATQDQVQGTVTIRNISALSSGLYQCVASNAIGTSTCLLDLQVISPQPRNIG

T4: ANXA1
T4 construct: coated protein in the ELISA; also called ANXA1-His (R&D Systems)
T4 chain: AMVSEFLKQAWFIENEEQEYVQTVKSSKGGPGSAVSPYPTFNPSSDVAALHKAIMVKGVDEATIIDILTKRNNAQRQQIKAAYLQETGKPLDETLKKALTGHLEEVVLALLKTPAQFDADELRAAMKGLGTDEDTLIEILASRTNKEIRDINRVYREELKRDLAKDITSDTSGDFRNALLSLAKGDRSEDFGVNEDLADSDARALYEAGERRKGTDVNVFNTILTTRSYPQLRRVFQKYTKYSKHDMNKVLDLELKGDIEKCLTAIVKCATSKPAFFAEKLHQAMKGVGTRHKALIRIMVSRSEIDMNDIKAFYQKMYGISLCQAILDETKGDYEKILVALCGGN


Experiments:
[1] = molecular target: T1, PTPRG-Fc (ECD of human PTPRG, aa …); assay: ELISA on coated PTPRG-Fc, 150 ng IgG1; None 0.117
Protocol: (§1) Recombinant purified ECDs (50-150 ng) of each putative target protein were coated, incubated with 150 ng of the indicated primary antibody, and binding was detected using a peroxidase-conjugated anti-human Fab secondary antibody. Heatmap represents averages of technical triplicates. (8B) Target validation via siRNA knockdown. H929 cells were transfected with siRNA pools targeting the putative antibody targets ICAM1, CADM1, and PTPRG. Cells were then subjected to cognate IgG binding analysis via flow cytometry. (NT, non-targeting siRNA).
(§2) ELISA ELISA was conducted as described previously. Briefly, 50-150 ng of antigen was coated overnight in half-area 96-well plates at 4° C., blocked with 3% BSA at 37° C. for 1 h, and 150 ng of chimeric rabbit/human IgG1 was added, incubating for 2 h at 37° C. […] After incubating at 37° C. for 15 min-1 h (depending on intensity of controls), data were acquired using a SpectraMax M5 plate reader (Molecular Devices).

HHLA2 (B7-H7) [2] = molecular target: T2, HHLA2 (B7-H7); assay: ELISA on coated HHLA2-Fc
Protocol: as §1, §2

IGSF11 (VSIG3) = molecular target: T3, IGSF11 (VSIG3); assay: ELISA on coated IGSF11-Fc
Protocol: as §1, §2

APP = molecular target: T5, APP; assay: ELISA on coated APP-His, 150 ng IgG1; None 0.092
T5 construct: His-tagged; coated protein in the ELISA; also called APP-His (Acro Biosystems)
Protocol: as §1, §2

ANXA1 [3] = molecular target: T4, ANXA1; assay: ELISA on coated ANXA1-His
Protocol: as §1, §2

ANXA1 [4] = molecular target: T4, ANXA1; assay: ELISA on coated ANXA1-His, 150 ng IgG1; None 0.098
Protocol: as §1, §2

PTP4A3 (PRL-3) [5] = molecular target: T6, PTP4A3 (PRL-3); assay: ELISA on coated His-PTP4A3, 150 ng IgG1; None 0.085
T6 construct: coated protein in the ELISA; also called His-PTP4A3 (R&D Systems)
T6 sequence (chain, as listed by the source limits assumed): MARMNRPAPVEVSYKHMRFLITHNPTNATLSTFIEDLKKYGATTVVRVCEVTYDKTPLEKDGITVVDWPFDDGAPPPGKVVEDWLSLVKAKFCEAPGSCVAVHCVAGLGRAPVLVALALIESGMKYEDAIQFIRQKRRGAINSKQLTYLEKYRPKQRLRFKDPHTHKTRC
Protocol: as §1, §2

HHLA2 (B7-H7) [6] = molecular target: T2, HHLA2 (B7-H7); assay: ELISA on coated HHLA2-Fc, 150 ng IgG1; None 0.087
Protocol: as §1, §2

ICAM1-Fc (R&D Systems) = molecular target: T7, ICAM1-Fc (R&D Systems) (human, UniProt P05362 28-480); assay: ELISA on coated ICAM1-Fc, 150 ng IgG1; None 0.060
T7 construct: Bought; also called ICAM-1/CD54; not shown: Fc of the bought fusion protein
T7 sequence (P05362 28-480): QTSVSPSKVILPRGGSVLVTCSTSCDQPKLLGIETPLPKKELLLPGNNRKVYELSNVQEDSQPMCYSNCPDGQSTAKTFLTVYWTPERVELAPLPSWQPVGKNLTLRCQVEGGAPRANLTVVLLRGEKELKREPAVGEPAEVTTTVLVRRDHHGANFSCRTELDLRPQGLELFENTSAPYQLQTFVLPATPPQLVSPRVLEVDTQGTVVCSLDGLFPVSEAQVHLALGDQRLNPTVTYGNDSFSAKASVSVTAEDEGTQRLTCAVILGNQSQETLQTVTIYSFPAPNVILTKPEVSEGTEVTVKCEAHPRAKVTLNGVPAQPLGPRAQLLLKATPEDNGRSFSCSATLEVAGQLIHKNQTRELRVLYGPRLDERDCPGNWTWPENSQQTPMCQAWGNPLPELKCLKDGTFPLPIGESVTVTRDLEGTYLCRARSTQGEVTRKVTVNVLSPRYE
Protocol: as §1, §2

PTP4A3 (PRL-3) [7] = molecular target: T6, PTP4A3 (PRL-3); assay: ELISA on coated His-PTP4A3
Protocol: as §1, §2

ELISA Absorbance (405 nm-570 nm) [1] | ELISA Absorbance (405 nm-570 nm) (APP) | ELISA Absorbance (405 nm-570 nm) (ANXA1 [4]) | ELISA Absorbance (405 nm-570 nm) (PTP4A3 (PRL-3) [5]) | ELISA Absorbance (405 nm-570 nm) (HHLA2 (B7-H7) [6]) | ELISA Absorbance (405 nm-570 nm) (ICAM1-Fc (R&D Systems)) | Binder | binding result (HHLA2 (B7-H7) [2]) | binding result (IGSF11 (VSIG3)) | binding result (ANXA1 [3]) | binding result (PTP4A3 (PRL-3) [7])
0.29 | 0.089 | 0.102 | 0.092 | 0.088 | 0.064 | HW-70 chimeric rabbit-human IgG1 LA/LA/PG (antibody, V domains shown, Fc-silenced (L234A/L235A/P329G) IgG1, lambda; Alexa Fluor 647-labeled in single-step flow cytometry; Cluster C-1) VH: QSLEESGGRLVTPGTPLTLTCTVSGFSLSSNAMSWVRQAPGKGLEWIGTIDGYGYTYYASWAKGRFTVSKTSTTVDLKITSPTTEDTATYFCAREIYLGSNFWGPGTLVTISS VL: SFVLTQPASVQVNLGQTVSLTCTADTLSRRYASWYQQKPGQAPVLLIYRDTSRPSGVPDRFSGSSSGNTATLTISGAQAGDEADYYCATADGSGSSYQFVFGGGTQLTVTG | no binding (tested: 150 ng IgG1 per well) | no binding (tested: 150 ng IgG1 per well) | no binding (tested: 150 ng IgG1 per well) | no binding (tested: 150 ng IgG1 per well)
0.784 | 0.066 | 0.065 | 0.079 | 0.066 | 0.054 | HW-25 chimeric rabbit-human IgG1 LA/LA/PG (antibody, V domains shown, Fc-silenced (L234A/L235A/P329G) IgG1, lambda; Alexa Fluor 647-labeled in single-step flow cytometry; Cluster C-1) VH: QSLEESGGRLVTPGTPLTLTCTVSGFSLSSYAMGWVRQAPGKGLEWIGIIDSRGSTYYATWAKGRFTISKTSTTVDLKITSPTTEDTATYFCAREDSYYYDSFNLWGPGTLVTVSS VL: SFVLTQPASVQVNLGQTVSLTCTADTLSRRYASWYQQKPGQAPVLLIYRDTSRPSGVPDRFSGSSSGNTATLTISGAQAGDEADYYCATSDGSGSSYQCVFGGGTQLTVTG | no binding (tested: 150 ng IgG1 per well) | no binding (tested: 150 ng IgG1 per well) | no binding (tested: 150 ng IgG1 per well) | no binding (tested: 150 ng IgG1 per well)
0.756 | 0.071 | 0.085 | 0.081 | 0.075 | 0.065 | HW-1 chimeric rabbit-human IgG1 LA/LA/PG (antibody, V domains shown, Fc-silenced (L234A/L235A/P329G) IgG1, lambda; Alexa Fluor 647-labeled in single-step flow cytometry; Prototype of cluster C-1) VH: QSLEESGGGLFKPTDTLTLTCTASGFSLGSSYAISWVRQAPGKELEWIGTIDSGRAYYARWAKSRSTITRNTNENTVTLKMTSLTAADTATYFCARDLIPTYSQDIWGPGTLVTISS VL: SFVLTQPASVQVNLGQTVSLTCTADTLSRRYASWYQQKPGQAPVLLIYRDTSRPSGVPDRFSGSSSGNTATLTISGAQAGDEADYYCATSDGSGNSYQYVFGGGTQLTVTS | no binding (tested: 150 ng IgG1 per well) | no binding (tested: 150 ng IgG1 per well) | no binding (tested: 150 ng IgG1 per well) | no binding (tested: 150 ng IgG1 per well)
0.756 | 0.062 | 0.073 | 0.072 | 0.076 | 0.071 | HW-17 chimeric rabbit-human IgG1 LA/LA/PG (antibody, V domains shown, Fc-silenced (L234A/L235A/P329G) IgG1, lambda; Alexa Fluor 647-labeled in single-step flow cytometry; Cluster C-1) VH: QSLGESRGRLVTPDETLTLTCTVSGIDLSSNAMSWVRQAPGEGLEWIGTINTGGRAYYASWAKGRFTISRTSTTVDLKMTSLTTEDTATYFCARERYSDGRAYDIWGPGTLVTISS VL: SFVLTQPASVQVNLGQTVSLTCTADTLSRRYASWYQQKPGQAPVLLIYTDSNRPSGIPDRFSGSSSGNTATLTISGAQAGDEADYYCATDDGSGSIYQYVFGGGTQLTVTG | no binding (tested: 150 ng IgG1 per well) | no binding (tested: 150 ng IgG1 per well) | no binding (tested: 150 ng IgG1 per well) | no binding (tested: 150 ng IgG1 per well)
0.069 | 0.071 | 0.077 | 0.075 | 0.073 | 0.067 | HW-8 chimeric rabbit-human IgG1 LA/LA/PG (antibody, V domains shown, Fc-silenced (L234A/L235A/P329G) IgG1, kappa; Alexa Fluor 647-labeled in single-step flow cytometry; Cluster C-45) VH: QSLEESGGRLVTPGTPLTLTCTVSGFSLSSYAMSWVRQAPGKGLEWIGAISTGGSTTYASWAKGRFTISKTSSTTVDLKMTSLTTEDTATYFCVRHFRLWGPGTLVTISS VL: QVLTQTPSSVSAAVGGTVTIKCQASQSIGSALAWFQQKPGQRPKLLIYRASNLASGVPSRFKGSGSGTEFALTISGVQREDAATYYCLGGAAAVWAFGAGTNVEIKR | no binding (tested: 150 ng IgG1 per well) | no binding (tested: 150 ng IgG1 per well) | no binding (tested: 150 ng IgG1 per well) | no binding (tested: 150 ng IgG1 per well)
0.102 | 0.112 | 0.082 | 0.104 | 0.076 | 0.074 | HW-56 chimeric rabbit-human IgG1 LA/LA/PG (antibody, V domains shown, Fc-silenced (L234A/L235A/P329G) IgG1, kappa; Alexa Fluor 647-labeled in single-step flow cytometry; Cluster C-45) VH: QSVKESEGGLFKPTDTLTLTCTASGFTVSTNAVTWVRQAPGNGLEYIGTIGRSGSAYFASWAKRRSTLTRDINLNTVTLKMTSLTAADTATYFCVRGSPGYRTAISIWGPGTLVTISS VL: AVMTQTPSSTSAAVEGTVTINCQASQSISNRLSWFQQKPGQPPKLLIYQASTLASGVPSRFKGSGSGTEFTLTISGVQREDAATYYCLGSYSSSDASFGGGTKLEIKR | no binding (tested: 150 ng IgG1 per well) | no binding (tested: 150 ng IgG1 per well) | no binding (tested: 150 ng IgG1 per well) | no binding (tested: 150 ng IgG1 per well)
